In US20250215104A1 (WALDEN BIOSCIENCES, published 2025):

Columns and labels:
[1] = target: T1, cynomolgus soluble urokinase plasminogen activator receptor (suPAR) (cynomolgus, UniProt Q9GK78 23-303, limits assumed); assay: off-rate (kdis) screen of scFv clones, biosensor (Octet)
T1 construct: Target antigen of the off-rate screen; also called cynomolgus uPAR; cynomolgus suPAR

[2] = target: T2, human soluble urokinase plasminogen activator receptor (suPAR) (human, UniProt Q03405 23-303, limits assumed); assay: as above
T2 construct: Target antigen of the off-rate screen; also called hsuPAR; human suPAR
T2 sequence (Q03405 23-303 limits assumed): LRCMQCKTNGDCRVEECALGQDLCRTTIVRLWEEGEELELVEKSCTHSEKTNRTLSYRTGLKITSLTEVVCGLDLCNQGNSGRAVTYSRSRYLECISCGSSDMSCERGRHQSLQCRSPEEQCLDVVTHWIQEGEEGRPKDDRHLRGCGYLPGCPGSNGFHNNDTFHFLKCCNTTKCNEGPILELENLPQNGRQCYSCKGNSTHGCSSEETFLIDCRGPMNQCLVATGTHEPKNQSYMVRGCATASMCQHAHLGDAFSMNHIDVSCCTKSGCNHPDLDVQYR

T1 sequence (Q9GK78 23-303 limits assumed): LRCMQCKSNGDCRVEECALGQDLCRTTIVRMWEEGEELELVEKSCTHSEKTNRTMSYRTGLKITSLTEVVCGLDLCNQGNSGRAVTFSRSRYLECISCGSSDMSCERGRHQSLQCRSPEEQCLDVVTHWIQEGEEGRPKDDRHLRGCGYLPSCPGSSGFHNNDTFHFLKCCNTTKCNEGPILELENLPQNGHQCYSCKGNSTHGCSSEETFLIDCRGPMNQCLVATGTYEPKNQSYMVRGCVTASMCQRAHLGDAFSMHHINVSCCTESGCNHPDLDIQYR

| koff [1] [s⁻¹] | koff [2] [s⁻¹] | Binder |
| --- | --- | --- |
| 0.000105 | 0.00493 | suPAR_DB01_C12 (scFv, V domains shown, screened as scFv) VH: QVQLVQSGAEVKKPGASVKVSCKASGDTFTSYYMHWVRQAPGQGLEWMGWIDHENGNTIYDQKFQGRVTMTRDTSTSTVYMELSSLRSEDTAVYYCARGYDVDWFVYWGQGTLVTVSS VL: DIQMTQSPSSLSASVGDRVTITCSARSSVSYMYWYQQKPGKAPKLLIYRTSNLASGVPSRFSGSGSGTDFTLTISSLQPEDFATYYCQQYHSYPPTFGGGTKVEIK |
| 0.000369 | 0.000531 | suPAR_DB01_D01 (scFv, V domains shown, screened as scFv) VH: QVQLVQSGAEVKKPGASVKVSCKASGYTFTGYYMHWVRQAPGQGLEWMGWIDHENGSTIYAQKFQGRVTMTRDTSTSTVYMELSSLRSEDTAVYYCARGYDVDWFVYWGQGTLVTVSS VL: DIQMTQSPSSLSASVGDRVTITCSARSSVSYMYWYQQKPGKAPKLLIYRTSNLASGVPSRFSGSGSGTDFTLTISSLQPEDFATYYCQQYHSYPPTFGGGTKVEIK |
| 0.000343 | 0.00425 | suPAR_DB01_D02 (scFv, V domains shown, screened as scFv) VH: QVQLVQSGAEVKKPGASVKVSCKASGYTFTSYYMHWVRQAPGQGLEWMGWIDPNTGDTNYAQKFQGRVTMTRDTSTSTVYMELSSLRSEDTAVYYCARGYDVDWFVYWGQGTLVTVSS VL: DIQMTQSPSSLSASVGDRVTITCRARSSVSYMYWYQQKPGKAPKLLIYRTSNLASGVPSRFSGSGSGTDFTLTISSLQPEDFATYYCQQYHSYPPTFGGGTKVEIK |
| 0.000203 | 0.00362 | suPAR_DB01_D03 (scFv, V domains shown, screened as scFv) VH: QVQLVQSGAEVKKPGASVKVSCKASGGTFTNYYMHWVRQAPGQGLEWMGWIDHENGNTIYDQKFQGRVTMTRDTSTSTVYMELSSLRSEDTAVYYCARGYDVDWFVYWGQGTLVTVSS VL: DIQMTQSPSSLSASVGDRVTITCSARSSVSYMYWYQQKPGKAPKLLIYRTSNLASGVPSRFSGSGSGTDFTLTISSLQPEDFATYYCQQYHSYPPTFGGGTKVEIK |
| 2.53e-05 | 0.000872 | suPAR_DB01_D04 (scFv, V domains shown, screened as scFv) VH: QVQLVQSGAEVKKPGASVKVSCKASGYTFTSYYMHWVRQAPGQGLEWMGWIDHENGSTIYAQKFQGRVTMTRDTSTSTVYMELSSLRSEDTAVYYCARGYDVDWFVYWGQGTLVTVSS VL: DIQMTQSPSSLSASVGDRVTITCSARSSVSYMYWYQQKPGKAPKLLIYRTSNLASGVPSRFSGSGSGTDFTLTISSLQPEDFATYYCQQYHSYPPTFGGGTKVEIK |
| 0.000419 | 0.00224 | suPAR_DB01_D05 (scFv, V domains shown, screened as scFv) VH: QVQLVQSGAEVKKPGASVKVSCKASGYTFTGSYVHWVRQAPGQGLEWMGWIDHENGNTIYDQKFQGRVTMTRDTSTSTVYMELSSLRSEDTAVYYCARGYDVDWFVYWGQGTLVTVSS VL: DIQMTQSPSSLSASVGDRVTITCSARQSVSYMYWYQQKPGKAPKLLIYRTSNLASGVPSRFSGSGSGTDFTLTISSLQPEDFATYYCQQYHSYPPTFGGGTKVEIK |
| 7.01e-07 | 0.000666 | suPAR_DB01_D08 (scFv, V domains shown, screened as scFv) VH: QVQLVQSGAEVKKPGASVKVSCKASGYTFTSYYMHWVRQAPGQGLEWMGWIDHENGSTIYAQKFQGRVTMTRDTSTSTVYMELSSLRSEDTAVYYCARGYDVDWFVYWGQGTLVTVSS VL: DIQMTQSPSSLSASVGDRVTITCRASSSVSYMYWYQQKPGKAPKLLIYRTSNLASGVPSRFSGSGSGTDFTLTISSLQPEDFATYYCQQYHSYPPTFGGGTKVEIK |
| 0.000506 | 0.00109 | suPAR_DB01_D09 (scFv, V domains shown, screened as scFv) VH: QVQLVQSGAEVKKPGASVKVSCKASGYTFTNYYMHWVRQAPGQGLEWMGWIDHSNGNTIYAQKFQGRVTMTRDTSTSTVYMELSSLRSEDTAVYYCARGYDVDWFVYWGQGTLVTVSS VL: DIQMTQSPSSLSASVGDRVTITCSARSSVSYMYWYQQKPGKAPKLLIYRTSNLASGVPSRFSGSGSGTDFTLTISSLQPEDFATYYCQQYHSYPPTFGGGTKVEIK |
| 0.000148 | 0.00147 | suPAR_DB01_D10 (scFv, V domains shown, screened as scFv) VH: QVQLVQSGAEVKKPGASVKVSCKASGYTFTGYYMHWVRQAPGQGLEWMGWIDHENGSTSYDQKFQGRVTMTRDTSTSTVYMELSSLRSEDTAVYYCARGYDVDWFVYWGQGTLVTVSS VL: DIQMTQSPSSLSASVGDRVTITCSARQSVSYMYWYQQKPGKAPKLLIYRTSNLASGVPSRFSGSGSGTDFTLTISSLQPEDFATYYCQQYHSYPPTFGGGTKVEIK |
| 0.000232 | 0.00382 | suPAR_DB01_D12 (scFv, V domains shown, screened as scFv) VH: QVQLVQSGAEVKKPGASVKVSCKASGYTFTSYYMHWVRQAPGQGLEWMGWIDPENGSTIYDQKFQGRVTMTRDTSTSTVYMELSSLRSEDTAVYYCARGYDVDWFVYWGQGTLVTVSS VL: DIQMTQSPSSLSASVGDRVTITCSARSSVSYMYWYQQKPGKAPKLLIYRTSNLASGVPSRFSGSGSGTDFTLTISSLQPEDFATYYCQQYHSYPPTFGGGTKVEIK |
| 0.000254 | 0.00474 | suPAR_DB01_E01 (scFv, V domains shown, screened as scFv) VH: QVQLVQSGAEVKKPGASVKVSCKASGYSFTSYYMHWVRQAPGQGLEWMGWIDPEGGSTIYDQKFQGRVTMTRDTSTSTVYMELSSLRSEDTAVYYCARGYDVDWFVYWGQGTLVTVSS VL: DIQMTQSPSSLSASVGDRVTITCSARSSVSYMYWYQQKPGKAPKLLIYRTSNLASGVPSRFSGSGSGTDFTLTISSLQPEDFATYYCQQYHSYPPTFGGGTKVEIK |
| 0.000347 | 0.00469 | suPAR_DB01_E02 (scFv, V domains shown, screened as scFv) VH: QVQLVQSGAEVKKPGASVKVSCKASGYTFTSYYMHWVRQAPGQGLEWMGWIDPEGGSTIYDQKFQGRVTMTRDTSTSTVYMELSSLRSEDTAVYYCARGYDVDWFVYWGQGTLVTVSS VL: DIQMTQSPSSLSASVGDRVTITCSARSSVSYMYWYQQKPGKAPKLLIYRTSNLASGVPSRFSGSGSGTDFTLTISSLQPEDFATYYCQQYHSYPPTFGGGTKVEIK |
| 5.44e-05 | 0.00402 | suPAR_DB01_E03 (scFv, V domains shown, screened as scFv) VH: QVQLVQSGAEVKKPGASVKVSCKASGYTFTDYYMHWVRQAPGQGLEWMGWIDHENGNTSYAQKFQGRVTMTRDTSTSTVYMELSSLRSEDTAVYYCARGYDVDWFVYWGQGTLVTVSS VL: DIQMTQSPSSLSASVGDRVTITCSARSSVSYMYWYQQKPGKAPKLLIYRTSNLASGVPSRFSGSGSGTDFTLTISSLQPEDFATYYCQQYHSYPPTFGGGTKVEIK |
| 0.00031 | 0.0014 | suPAR_DB01_E04 (scFv, V domains shown, screened as scFv) VH: QVQLVQSGAEVKKPGASVKVSCKASGYTFTGYYMHWVRQAPGQGLEWMGWIDHENGNTIYDQKFQGRVTMTRDTSTSTVYMELSSLRSEDTAVYYCARGYDVDWFVYWGQGTLVTVSS VL: DIQMTQSPSSLSASVGDRVTITCSARQSVSYMYWYQQKPGKAPKLLIYRTSNLASGVPSRFSGSGSGTDFTLTISSLQPEDFATYYCQQYHSYPPTFGGGTKVEIK |
| 0.000218 | 0.00224 | suPAR_DB01_E06 (scFv, V domains shown, screened as scFv) VH: QVQLVQSGAEVKKPGASVKVSCKASGYTFINYYMHWVRQAPGQGLEWMGWIDPENGNTIYDQKFQGRVTMTRDTSTSTVYMELSSLRSEDTAVYYCARGYDVDWFVYWGQGTLVTVSS VL: DIQMTQSPSSLSASVGDRVTITCSARSSVSYMYWYQQKPGKAPKLLIYRTSNLASGVPSRFSGSGSGTDFTLTISSLQPEDFATYYCQQYHSYPPTFGGGTKVEIK |
| 6.72e-05 | 0.00228 | suPAR_DB01_E07 (scFv, V domains shown, screened as scFv) VH: QVQLVQSGAEVKKPGASVKVSCKASGYTFTSYYMHWVRQAPGQGLEWMGWIDHENGNTIYDQKFQGRVTMTRDTSTSTVYMELSSLRSEDTAVYYCARGYDVDWFVYWGQGTLVTVSS VL: DIQMTQSPSSLSASVGDRVTITCRASSSVSYMYWYQQKPGKAPKLLIYRTSNLASGVPSRFSGSGSGTDFTLTISSLQPEDFATYYCQQYHSYPPTFGGGTKVEIK |
| 5.85e-07 | 0.000564 | suPAR_DB01_E08 (scFv, V domains shown, screened as scFv) VH: QVQLVQSGAEVKKPGASVKVSCKASGYTFTGYYIHWVRQAPGQGLEWMGWIDHENGSTIYDQKFQGRVTMTRDTSTSTVYMELSSLRSEDTAVYYCARGYDVDWFVYWGQGTLVTVSS VL: DIQMTQSPSSLSASVGDRVTITCSARSSVSYMYWYQQKPGKAPKLLIYRTSNLASGVPSRFSGSGSGTDFTLTISSLQPEDFATYYCQQYHSYPPTFGGGTKVEIK |
| 0.000246 | 0.00446 | suPAR_DB01_E09 (scFv, V domains shown, screened as scFv) VH: QVQLVQSGAEVKKPGASVKVSCKASGYTFTSYYMHWVRQAPGQGLEWMGWIDHENGNTIYDQKFQGRVTMTRDTSTSTVYMELSSLRSEDTAVYYCARGYDVDWFVYWGQGTLVTVSS VL: DIQMTQSPSSLSASVGDRVTITCSARSSISYMYWYQQKPGKAPKLLIYRTSNLQSGVPSRFSGSGSGTDFTLTISSLQPEDFATYYCQQYHSYPPTFGGGTKVEIK |
| 0.000104 | 0.00162 | suPAR_DB01_E10 (scFv, V domains shown, screened as scFv) VH: QVQLVQSGAEVKKPGASVKVSCKASGYTFTGYYMHWVRQAPGQGLEWMGWIDHENGSTSYDQKFQGRVTMTRDTSTSTVYMELSSLRSEDTAVYYCARGYDVDWFVYWGQGTLVTVSS VL: DIQMTQSPSSLSASVGDRVTITCRARQSVSYMYWYQQKPGKAPKLLIYRTSNLASGVPSRFSGSGSGTDFTLTISSLQPEDFATYYCQQYHSYPPTFGGGTKVEIK |
| 0.000369 | 0.000638 | suPAR_DB01_E11 (scFv, V domains shown, screened as scFv) VH: QVQLVQSGAEVKKPGASVKVSCKASGYTFTNYYMHWVRQAPGQGLEWMGWIDHENGSTIYAQKFQGRVTMTRDTSTSTVYMELSSLRSEDTAVYYCARGYDVDWFVYWGQGTLVTVSS VL: DIQMTQSPSSLSASVGDRVTITCSARSSVSYMYWYQQKPGKAPKLLIYRTSNLASGVPSRFSGSGSGTDFTLTISSLQPEDFATYYCQQYHSYPPTFGGGTKVEIK |
| 0.000203 | 0.000618 | suPAR_DB01_F01 (scFv, V domains shown, screened as scFv) VH: QVQLVQSGAEVKKPGASVKVSCKASGYTFTSYYVHWVRQAPGQGLEWMGWIDHENGSTIYAQKFQGRVTMTRDTSTSTVYMELSSLRSEDTAVYYCARGYDVDWFVYWGQGTLVTVSS VL: DIQMTQSPSSLSASVGDRVTITCSARSSVSYMYWYQQKPGKAPKLLIYRTSNLASGVPSRFSGSGSGTDFTLTISSLQPEDFATYYCQQYHSYPPTFGGGTKVEIK |
